Test [1] concerns the target humanized CD98HC protein (human/mouse chimeric (human amino acids 215-630 of SEQ ID NO: 2 in place of mouse amino acids 147-565 of SEQ ID NO: 1)) (UniProt P08195). The test is described as follows: flow cytometry, spleen T cells (mCD45+ mTCR β+) of CD98HC humanized homozygous mouse (H/H). For orientation: In flow cytometry, cells or beads pass a laser one at a time.
The target is the same in test [2]. Nature of the test: flow cytometry, spleen B cells (mCD45+ mCD19+) of CD98HC humanized homozygous mouse (H/H).
Test [3] has as its target mouse CD98HC (NP_001154885.1) (mouse) (UniProt P10852). Nature of the test: flow cytometry, spleen B cells (mCD45+ mCD19+) of wild-type C57BL/6 mouse.
Test [4] has the same target. The test is described as follows: flow cytometry, spleen T cells (mCD45+ mTCR β+) of wild-type C57BL/6 mouse.

Sequence of UniProt P08195 (P08195 other isoform, or with tags, fused parts or gaps mutant limits assumed): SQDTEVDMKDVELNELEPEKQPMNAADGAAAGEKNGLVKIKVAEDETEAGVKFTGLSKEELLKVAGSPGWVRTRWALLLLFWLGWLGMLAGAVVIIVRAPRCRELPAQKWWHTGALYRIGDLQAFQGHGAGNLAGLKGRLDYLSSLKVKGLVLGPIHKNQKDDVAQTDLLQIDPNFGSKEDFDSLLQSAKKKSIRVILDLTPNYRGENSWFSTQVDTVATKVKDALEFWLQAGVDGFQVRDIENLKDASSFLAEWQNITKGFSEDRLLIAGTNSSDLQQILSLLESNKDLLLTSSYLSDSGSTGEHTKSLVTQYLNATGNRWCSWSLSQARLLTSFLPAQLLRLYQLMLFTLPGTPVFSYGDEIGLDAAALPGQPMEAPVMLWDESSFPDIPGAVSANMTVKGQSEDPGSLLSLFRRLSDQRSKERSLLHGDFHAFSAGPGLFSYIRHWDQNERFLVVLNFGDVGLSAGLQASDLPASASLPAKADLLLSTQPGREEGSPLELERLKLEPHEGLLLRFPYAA
Sequence of UniProt P10852 (P10852 other isoform, or with tags, fused parts or gaps): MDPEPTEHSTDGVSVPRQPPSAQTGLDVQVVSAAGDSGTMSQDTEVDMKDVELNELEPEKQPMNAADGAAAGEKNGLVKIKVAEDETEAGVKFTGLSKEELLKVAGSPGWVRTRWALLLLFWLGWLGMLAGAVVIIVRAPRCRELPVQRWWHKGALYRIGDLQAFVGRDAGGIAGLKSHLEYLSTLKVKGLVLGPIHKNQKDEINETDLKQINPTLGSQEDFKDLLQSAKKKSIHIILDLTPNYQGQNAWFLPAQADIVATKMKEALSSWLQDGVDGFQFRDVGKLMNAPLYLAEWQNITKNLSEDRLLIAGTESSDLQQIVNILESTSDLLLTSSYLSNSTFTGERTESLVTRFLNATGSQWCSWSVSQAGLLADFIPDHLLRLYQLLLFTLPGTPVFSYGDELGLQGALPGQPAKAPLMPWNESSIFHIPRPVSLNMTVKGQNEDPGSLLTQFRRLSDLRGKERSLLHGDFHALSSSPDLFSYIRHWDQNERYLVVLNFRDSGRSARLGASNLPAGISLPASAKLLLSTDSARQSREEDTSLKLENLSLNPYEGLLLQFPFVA

On to “APC anti-mouse CD98 (4F2) Antibody (Biolegend, Catalog number: 128211)”, for which the percentage of positive cells came to 0.27% in test [1], 0.3% in test [2], 17.2% in test [3] and 14.7% in test [4].

Turning to “FITC anti-human CD98 Antibody (Biolegend, Catalog number: 315603)”, the percentage of positive cells in test [1] stood at 27.6%; in test [2], 27.1%; in test [3], 0.82%; in test [4], 0.45%.

Values taken from patent publication US20260123609A1.
